According to the domain aggregation screens of Martell et al. (2025):

Experiment: soluble fraction after stress (log2 fold change); higher = more stays soluble; pooled small domains, quantitative proteomics
Conditions: stress: 75 degC
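Further: 20 min heating vs room temperature control held 20 min.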

Sequence | soluble fraction (log2)
HMPSGRIRWFDAKKGYGFIAGDDGKDVFLPQTALPQGVRNPRKGAKVEYSVIEGNRGQVAMGVTMV | -0.331
HMPSHALFWTLLKEVPGYDPHYKDVIKEGIVHEHSGGRTTSLSEMYTKYPREYSLMIEAMKG | -0.475
HMPSKTFYNLSQEKQQKIIDASEKEFSNNLYQDVSLNQIIKNSNISRGSFYMYFTDKEDLYFYLLNEY | -0.731
HMPSLGADIRALRKSRKMTLVALADALGRSVGWLSQVERDKSHATIADLGRMAEVLDVSISSFL | -0.273
HMPSLSAILHDARVAAGLSMRQASAASGLSIGFISMLEQGKVQDISLQRLGRLVTAYDLEPLDVIEAAG | -1.83
HMPSSAYGPYKNVFLSNSELTKLKNELPTSWEHYINRLSEYMRSTGRQYQSHAATILRWAATDRNS | -0.488
HMPSSFLVKVTADALNIRSGPGVANRITGTIKDKGTYTIVDTKDDWGKLKSGVGWIHLGYTKRLD | -0.857
HMPSSQQVMRRLATVGPDKTLEELQRQHDAHLRKYGEFNDFRGERQQMRQEMERIKEAKQGTGPYAHLMG | 0.025
HMPTAGYMTVTPDRVKEGQQFLATLRPPYVLKADGLAAGKGVLILPELEEAQRELEEMLGGFLGELSVNR | 0.136
HMPTERLSMRRIRELLRLRFEVGLSTRLIATALGISKGAVGDYLQRAQVAGLGWPLPENLNDAALERRLFP | -1.38
HMPTGRVVIPLNRLTASDVARILDEAYGRDHNFEVVKPSRLAKGIIVIGPKSEIDGIKELLAH | -0.829
HMPTLLGYKHILSAWNPDTNTVFRTSYGYDGEYGSREEAMQALIKMIQEGGKATPRGIEESEVPIY | -0.238
HMPTLSKVGSQGEEVRQIQTKLKNWGYLNDRVDGIYGPKTRDAVIWFQKKNGLVADGIAGPATLKAMGIFT | -0.142
HMPTMVAQINEIVQAKLPGSGLKDYTIRLVESQRDGVVVWVNGTRYLGVDEVAEPQVQALLKEAVAEWERS | -0.462
HMPTQGELAILRVLWEQGPSTVRAVWEKLNSQSGTGYTTALKLMQIMAQKGLVSRDESQKTHVYRA | -1.54
HMPTTRPEAEAHYETHQRYHDLQIDVEGREAFKVATGSLTLVQEFDEKDDYDLSIPTPRSPAILLTT | -0.0329
HMPVFYVTGNRVNFRAGPSTGDRVIGSLSQGAAVEVLGPTDDAWINIRDSDGRVGYMSAQFLSQ | 0.355
HMPVLDETVPAALDGERIDRVVALLADVSRNRAGIAIAAGSVRLDGAVVTQRSRKVRADEELVVDGLER | 0.107
HMPVNEEFKRLIDKIKYEFSINQAQISERLGVKSTYLSDMINGRVPYNESMQKKIHEVFHIG | -0.424
HMPVNGEFIERIKVMVLENKAKGKKERLTKTRMHQLLQEEGYKGSYSAFTHQVRIIEEELGVNQKEAH | -0.48
HMPVSRMRARHEALARGVMGIHAGGFSAVYGYRKVWHGLIGKGWDPGEVGRDQVMNIMRGLGMQGVRR | -0.132
HMPVSVAEQKQILAEALQERGHATFRELIENADNRMIVVGRFLALLELYRDGTVRFEQERALGELTIHWEE | -2.07
HMPYIVNHIHLKSEDPKITADWFVKAFNFEIVSDVVRHFGDRFIVTKAEGGMTINISGVRDGEEL | 0.141
HMPYNNLADAPASWKKLDDTPLTLGQVNWIAKIYDALVAKGMEKGAAAGTAISRFKKSFKVADGKWVQV | -0.478
HMPYNRRYLISNADGALYTVEENGLVKLEETNLTAELFETRGMQDIPDGKLLITLHDPTILYWHDSENLFP | -1.5
HMPYSPTPGSAPARLIAHLQEHGDSVNRTAIAELLQVDRKNVHNYLARAVTHGLLLRHGGGAYSLP | 0.0908

Sequence | soluble fraction (log2)
HMQADEENPKYPVITDGVIQLEVLESIDKTEEWLVERLAKDGYNNVSEIFIAEYENGNLSIVT | 0.0913
HMQADPYTVLGVLRDVTDGELKREYRKLVREHHPDALIAQGVPQEFVDIANNKLAVINAAYERIAKQRGL | -0.154
HMQAGILTDTAAKNARIKKIDTERLEAELDQKRIVIVTGFQGVDRNQNITTLGRGGSDTSAVALAAAVSIT | 0.171
HMQAKDVEIPNFVGKTLAEANADNKDNFNFVVESKYDASKELGVILEQEPAADSKLVKSGSQITLKV | ≥ 1.04
HMQALDNNDALEEIIKKVITENPSQVTEFRNGKDSLMNFLVGKVMAASGGKANPKTLPETIEKIIK | 0.277
HMQAMDYEGFKKEILKMSDIDLSLYKEKQMKRRIDSLIRKNGYEHYEDYVQALKQDSGLYNEFINYLTI | 0.571
HMQANLPFSELLADVDRGLISDVTIKGDQVSGHYTDGRTFNTFIPPEADLVRRLTEKNVRIAAVPD | -0.113
HMQAPAFDYSKVQEGVTVNHKIFGDGTVSWIDKARKYIRVQFSVGEKMFTMETAFVQGFLSL | -1.19
HMQAPVDPIVLGKMGSSYGIRGWLRVFSSTEDAESIFDYQPWFIQKAGQWQQVQLESWKHHNQDMIIKLN | 0.2
HMQARLPFSFAKRHGVILLAATGEGQSDVIYKSGFDIGALAEVRRFVAGEIALKEVDGPSFDRQLTLTYQN | -2
HMQARSQQTIQTLFKAAAQILDKEGEAGLSTNKVAAAAGFSIGTLYQYFPSKEVLIQAMAAR | 0.219
HMQASISVDEAKSIALNYAKFTADQVVYTKSELDYDDGRAEYEIEFYAGGKEYSFTIDAVSGTVLEMEI | -2.26
HMQATDEEIENFTSSAITAYKLTKEEGYIISMRDMKPIMEIVKTEYPMANGKVVSKVMNNYING | 0.0264
HMQDELSSSVIEEAVVVLLLRAANIDGKKDEQEIEAIKRLIIQQFNYDEEKADILITSASEK | 0.0178
HMQDGTILPGQKTAIRSLATSGGYDSQDLDTYLATTYGKSIDGLTRTEGADVIKAFQAGTVAK | 0.436
HMQDLEIKINLGMTYYEVREAIGSPDIIDKINQYGRDFQMWTYYIDDKTKRYYFEDHLLTKI | -2.84
HMQDLPPIHLSRGMTDYTLVRSRRRTLSMELKRDGTVVVHAPLRLGVEKIDAFVAAHEAWLARARTRQAER | -2.59
HMQDNPELVARIEKAAARGTSSMSDWERSFMGSLLDSAKKWGRLTAKQHEVFQRIEKKTDPAHQAAVS | 0.111
HMQDPRITRTRGLILQAFDALLVEKGFHALSVQAIAGRAGINRATFYAHFADKYALLDTSIQE | 0.227
HMQDREKNIAEGRDIIEHEFMRLGISLSRYDLDGLASKLNVKAGDDVLAGVGAGDIRVSQIISQLG | -0.0551
HMQDTVKNVFGAFTIFTDKPFAIGDTINVNGLEGTVVDVGMRSTQILGYDRRITSYPNYKITDSSIVNISS | -0.0554
HMQDVVFTVDKDQTGAEIGDMLYEKGIISSPTTFRLALRLTGSMDKLQQGYYQIPQNASLRQVIALLQKG | -0.35
HMQDYYTQSDFARYLEDKGIHFPQNKIAVYRKRGKFPKEDLVVAGTPYWSKYTVESFAKHLLEQQN | 0.254
HMQEAATSLNAKILAKLRENNGTLAVSDKSDPALISSLFGVSKGNFKKAIGALYKNGQIVIHADRIEL | -0.813
HMQEDQKTSIFDIEGVEKGVASVLSSIKVEIVSDLLEADMDDILKSGKISEDDLDGVYEAVQNFVER | 0.41
HMQELNDQQRLAILNEWNNRATNPPSLLELVRVAFPDAEGADGRSWHGKKVKEFLSTRQIKARAS | 0.0119

Sequence | soluble fraction (log2)
HMQENFYMILESEERRVLDVLVADQPESVATFLKLVSPFPNYKIILEHINEKALDFYEETVI | -0.35
HMQESTILPAQKSAISSLATSAGFSSENLKRYLLQNYGVDLKDLTRSQGAEVIKAFQSGNVSKP | 0.281
HMQETPAMLAMKELPTEDEQRIYMMLQEDYDSVLLVKTIRNAFSQNPQLTRQQLLPIILTWLMT | -1.33
HMQGATVYIKSDDIGKTTNEQGSFNFDKLKKNRYTLEISFIGYETKNLQAYTDRENIVQLNRKS | -0.307
HMQGEVPYSQFLTEVDRGDVQSVVIEGNNISGFYKNSSTAFTVVAPDDPKLVERLMEQGVEVKARPV | 0.112
HMQGEVVTNRSVIDMSRAGLSADIIRAKILRSDTNFDVTAKALIELKESGVPDDIIALMLERADS | 0.00604
HMQGIPVTVTAERANLRSGPGTSFDKLGQVVQGDVLTLLEVQNDWYKVKTAEGKTAFVAAYLVNSP | -0.269
HMQGQADFTQGIANFTQYPVGSRITVFTLEGRRVAVVEIGKDGTAQLDMRNKPAGVYIVNTGKQSFKWLK | -2.65
HMQGRIYLNPDLAEKLRAQYAAYPHWSYLLHTENLGALVRKTESLGPMPSYSTILRYMHANDMRKRNKP | -1.78
HMQGVNLTETEKNFIAQVLSPLLKQGQSLYQIRTNHPEIKLSVKTLYTYIESGIFKESGINNFSLRRQ | -0.122
HMQILNVFSKHGIKPISPQIGDKFDPQLHEAMFEAPVPGTKAGDIIEVSSEGFMLYDRLLRPAHVGVSSN | -0.0306
HMQILPAFLPENPELRARLANHSLEELTEILKQYKTLHNSTDVDTVKRAIRAIEIEEYYAVHPV | -0.731
HMQINLKQSSDEELVKIITVQVHHYEPHTVKAAEAEIERRGIDKMRMAHLVKKVAQENTAVQEIQD | 0.297
HMQISDDSELIKIVDNILANSQKQIDDYHNGKTNLFGFFVGQVMKETKGKANPVKVNEILKDKL | -0.00828
HMQISDSSLIAKTVATVILENPEAVSDYLGGKHSVVRFMVGQIMKKTQGKANPKMATEMLETALNDL | -1.88
HMQISDTTELSTLITKVLSEQSDALVDFKNPKKQKQVIGYLTGQVLRASQGKANPGLVRSLLEEQLSALDS | 0.0724
HMQISMQNIASVKIDDLSDEQIQEFSTKYTAAGYSFPDVENVAKQKGMPSSEIEKLRQRVLTAQNTQEK | 0.283
HMQISSSEVLEKVVDEILSANPKSIEDYKNGKLQAAGFLMGQVMKATKGQANPAVAKELIEAKLKD | 0.461
HMQISYDVPNLIGKSYEEVMTDPSILGEHFTVVLGETKTDEDTDAGVILHQDPAADSKVQDEVTPITVTVS | 0.374
HMQITDTEAIATTLDEIIAANPKEWERLKAGQEQLVKFFVGQVMRVTKGRANPQVVNDLLKERL | -0.346
HMQITNEGQIKLVISEVLNENQEQKKQYLSGKEQVLGYLIGKVMQKTKGKANPKLVNDLMIKELS | -0.135
HMQITSTDEIEKMIDELIAANPEQTKQYQNGNHKVAGWFVGQMMKASKGKANPQMVNNLLQKKL | 0.278
HMQITTVSPKNYAEAELIGQRFREGNPVVMDLSKLDSDLGQRLVDFASGLVFALNGTVERIAKKVFLLSP | -1.37
HMQIVHKHLQLQPDQGALRAALYSHKAVVAEQVNEQGAINLEIKLAESDFLRLLKSSGLKLQDLVSLS | -1.35
HMQKAQEYILVDIKGEVQTPGVYKLPVNSRVIDAIEASGGLTKKAVTTYINLSKTLKDENVIIINKKSEL | -0.59
